Measurements as given in PMC10491584, “Structural convergence endows nuclear transport receptor Kap114p with a transcriptional repressor function toward TATA-binding protein” (Nature Communications, 2023).

T1: Kap95p (S. cerevisiae, UniProt Q06142 1-861)
T1 construct: Kap95p, S. cerevisiae, full length; The purification paragraph is headed for Kap114p proteins; that Kap95p was treated alike is surmised; source: E. coli, GST-tagged construct in modified pGEX6p1; purification told for the GST-tagged proteins; not shown: GST, N-terminal, cleaved
T1 sequence (looked up): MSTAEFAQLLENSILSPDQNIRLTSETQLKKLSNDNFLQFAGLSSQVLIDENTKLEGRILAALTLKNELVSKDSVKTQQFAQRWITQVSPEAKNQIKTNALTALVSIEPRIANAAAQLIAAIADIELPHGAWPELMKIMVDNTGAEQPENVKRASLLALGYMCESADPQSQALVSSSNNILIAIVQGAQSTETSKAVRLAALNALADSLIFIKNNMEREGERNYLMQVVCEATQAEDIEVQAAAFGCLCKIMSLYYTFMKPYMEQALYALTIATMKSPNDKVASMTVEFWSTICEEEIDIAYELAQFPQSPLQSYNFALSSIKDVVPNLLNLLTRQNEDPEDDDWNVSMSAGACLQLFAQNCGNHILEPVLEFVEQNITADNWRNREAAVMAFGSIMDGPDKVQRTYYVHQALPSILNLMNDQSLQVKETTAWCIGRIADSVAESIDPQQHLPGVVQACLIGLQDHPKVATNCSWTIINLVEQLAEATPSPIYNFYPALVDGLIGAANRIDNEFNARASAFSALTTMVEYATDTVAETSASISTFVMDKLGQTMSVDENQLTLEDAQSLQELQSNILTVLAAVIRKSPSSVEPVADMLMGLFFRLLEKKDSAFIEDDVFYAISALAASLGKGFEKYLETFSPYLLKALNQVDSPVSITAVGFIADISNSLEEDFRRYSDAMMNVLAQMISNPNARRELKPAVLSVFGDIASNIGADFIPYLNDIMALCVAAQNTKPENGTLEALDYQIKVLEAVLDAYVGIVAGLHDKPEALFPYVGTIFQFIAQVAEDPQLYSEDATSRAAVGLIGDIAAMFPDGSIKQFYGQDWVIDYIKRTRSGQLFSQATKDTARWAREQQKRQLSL

T2: Kap114p (wild type) (S. cerevisiae, UniProt P53067 1-1004)
T2 construct: Kap114p, S. cerevisiae, full length, amplified from total genomic DNA; GST tag removed with PreScission protease; also called karyopherin-β Kap114p; source: E. coli Rosetta, purified (GST resin, MonoQ, Superdex 200); not shown: GST, N-terminal, cleaved
T2 sequence (looked up): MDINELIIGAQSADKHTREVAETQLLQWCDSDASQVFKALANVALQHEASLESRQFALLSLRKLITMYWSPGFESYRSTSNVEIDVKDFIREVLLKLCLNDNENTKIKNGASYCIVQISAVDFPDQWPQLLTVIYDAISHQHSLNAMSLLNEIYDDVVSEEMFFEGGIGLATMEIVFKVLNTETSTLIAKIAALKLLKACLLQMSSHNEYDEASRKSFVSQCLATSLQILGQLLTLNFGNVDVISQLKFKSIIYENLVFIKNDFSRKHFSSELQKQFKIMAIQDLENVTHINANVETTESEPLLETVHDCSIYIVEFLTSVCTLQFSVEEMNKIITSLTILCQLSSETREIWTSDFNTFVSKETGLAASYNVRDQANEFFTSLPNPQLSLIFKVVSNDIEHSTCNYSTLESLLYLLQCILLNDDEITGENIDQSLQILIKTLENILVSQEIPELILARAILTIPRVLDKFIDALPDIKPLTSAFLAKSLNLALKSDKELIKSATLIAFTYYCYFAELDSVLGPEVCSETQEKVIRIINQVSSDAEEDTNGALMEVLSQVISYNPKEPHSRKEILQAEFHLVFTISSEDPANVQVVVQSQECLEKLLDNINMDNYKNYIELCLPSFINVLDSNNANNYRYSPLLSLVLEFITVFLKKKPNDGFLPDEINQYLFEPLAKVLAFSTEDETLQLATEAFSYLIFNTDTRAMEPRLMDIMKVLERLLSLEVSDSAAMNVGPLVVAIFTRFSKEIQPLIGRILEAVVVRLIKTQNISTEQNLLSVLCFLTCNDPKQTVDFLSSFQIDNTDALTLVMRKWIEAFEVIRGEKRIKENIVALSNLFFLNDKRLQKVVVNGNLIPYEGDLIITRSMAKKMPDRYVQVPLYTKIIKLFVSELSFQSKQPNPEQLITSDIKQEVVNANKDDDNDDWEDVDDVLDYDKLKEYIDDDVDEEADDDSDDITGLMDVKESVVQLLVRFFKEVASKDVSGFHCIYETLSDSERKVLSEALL

T3: Kap114pΔ(932-941) (S. cerevisiae, UniProt P53067 1-1004, Δ(932-941))
T3 construct: Kap114p, S. cerevisiae, full length with residues 932-941 deleted; also called Kap114p deletion mutant lacking the α-helix of the HEAT19 loop (a.a. 932-941); source: E. coli Rosetta, purified (GST resin, MonoQ, Superdex 200); not shown: GST, N-terminal, cleaved
T3 sequence (looked up): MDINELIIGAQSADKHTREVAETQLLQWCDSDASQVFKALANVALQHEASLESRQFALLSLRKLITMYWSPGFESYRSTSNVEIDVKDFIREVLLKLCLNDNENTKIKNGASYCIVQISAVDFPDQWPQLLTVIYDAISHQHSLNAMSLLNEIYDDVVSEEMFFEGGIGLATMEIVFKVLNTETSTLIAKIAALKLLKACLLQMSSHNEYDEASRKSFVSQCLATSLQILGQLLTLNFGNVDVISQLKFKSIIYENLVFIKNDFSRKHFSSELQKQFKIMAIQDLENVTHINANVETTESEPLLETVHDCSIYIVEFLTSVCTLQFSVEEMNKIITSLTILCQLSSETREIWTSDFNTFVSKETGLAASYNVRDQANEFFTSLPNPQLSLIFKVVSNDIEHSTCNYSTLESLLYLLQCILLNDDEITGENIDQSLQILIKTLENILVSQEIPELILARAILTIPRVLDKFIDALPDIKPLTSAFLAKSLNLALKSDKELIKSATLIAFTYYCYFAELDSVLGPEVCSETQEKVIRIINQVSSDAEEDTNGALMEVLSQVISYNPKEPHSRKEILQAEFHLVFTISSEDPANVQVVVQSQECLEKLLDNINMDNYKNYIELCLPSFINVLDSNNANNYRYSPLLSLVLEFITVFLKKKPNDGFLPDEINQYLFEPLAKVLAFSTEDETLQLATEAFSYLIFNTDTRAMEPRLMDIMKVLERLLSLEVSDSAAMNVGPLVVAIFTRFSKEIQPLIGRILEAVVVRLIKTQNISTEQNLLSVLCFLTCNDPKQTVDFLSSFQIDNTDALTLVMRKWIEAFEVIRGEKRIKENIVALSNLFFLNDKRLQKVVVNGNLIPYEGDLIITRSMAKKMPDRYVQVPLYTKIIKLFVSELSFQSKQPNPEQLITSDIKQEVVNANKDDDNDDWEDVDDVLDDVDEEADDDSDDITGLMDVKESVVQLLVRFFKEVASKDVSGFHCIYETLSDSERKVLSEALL

T4: Kap114p(Y370A) (S. cerevisiae, UniProt P53067 1-1004, Y370A)
T4 construct: Kap114p, S. cerevisiae, full length, point mutant Y370A; source: E. coli Rosetta, purified (GST resin, MonoQ, Superdex 200); not shown: GST, N-terminal, cleaved
T4 sequence (looked up): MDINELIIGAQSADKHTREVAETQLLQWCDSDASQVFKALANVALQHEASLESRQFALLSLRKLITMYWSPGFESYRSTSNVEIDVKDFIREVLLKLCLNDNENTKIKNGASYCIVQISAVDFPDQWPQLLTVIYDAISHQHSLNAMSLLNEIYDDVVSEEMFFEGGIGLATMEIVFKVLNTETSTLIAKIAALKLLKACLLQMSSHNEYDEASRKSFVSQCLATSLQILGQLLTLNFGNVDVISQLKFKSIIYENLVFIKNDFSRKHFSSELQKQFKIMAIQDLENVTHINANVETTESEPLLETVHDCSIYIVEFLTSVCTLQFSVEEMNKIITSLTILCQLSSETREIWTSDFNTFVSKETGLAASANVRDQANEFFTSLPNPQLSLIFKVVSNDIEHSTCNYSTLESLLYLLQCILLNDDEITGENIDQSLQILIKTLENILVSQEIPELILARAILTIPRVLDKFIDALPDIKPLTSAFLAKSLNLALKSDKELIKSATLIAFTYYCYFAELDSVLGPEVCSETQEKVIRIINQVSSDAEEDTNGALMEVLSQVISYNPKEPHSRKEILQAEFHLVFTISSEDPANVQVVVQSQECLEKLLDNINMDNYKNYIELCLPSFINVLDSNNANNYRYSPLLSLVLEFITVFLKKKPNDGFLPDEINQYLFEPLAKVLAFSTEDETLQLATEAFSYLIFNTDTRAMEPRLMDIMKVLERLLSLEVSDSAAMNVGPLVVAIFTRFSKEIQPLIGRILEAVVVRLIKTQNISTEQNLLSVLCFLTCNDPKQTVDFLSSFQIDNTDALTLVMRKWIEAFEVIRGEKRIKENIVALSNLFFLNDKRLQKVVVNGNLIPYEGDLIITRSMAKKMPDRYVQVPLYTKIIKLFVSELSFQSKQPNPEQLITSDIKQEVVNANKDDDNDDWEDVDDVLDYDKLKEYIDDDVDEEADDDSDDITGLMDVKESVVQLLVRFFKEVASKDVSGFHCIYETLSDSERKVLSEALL

B1: core domain of yeast TATA-box binding protein (yTBP^C), wild type (domain or fragment, S. cerevisiae, UniProt P13393 61-240, looked up)
chain: SGIVPTLQNIVATVTLGCRLDLKTVALHARNAEYNPKRFAAVIMRIREPKTTALIFASGKMVVTGAKSEDDSKLASRKYARIIQKIGFAAKFTDFKIQNIVGSCDVKFPIRLEGLAFSHGTFSSYEPELFPGLIYRMVKPKIVLLIFVSGKIVLTGAKQREEIYQAFEAIYPVLSEFRKM
notes: 61-240; His tag removed with PreScission protease; also called yTBP core domain; source: E. coli Rosetta, purified (Ni-NTA, HiTrap SP, Superdex 75); not shown: His6, N-terminal, cleaved
B2: yTBP^C (N91A) (domain or fragment, S. cerevisiae, UniProt P13393 61-240, looked up)
chain: SGIVPTLQNIVATVTLGCRLDLKTVALHARAAEYNPKRFAAVIMRIREPKTTALIFASGKMVVTGAKSEDDSKLASRKYARIIQKIGFAAKFTDFKIQNIVGSCDVKFPIRLEGLAFSHGTFSSYEPELFPGLIYRMVKPKIVLLIFVSGKIVLTGAKQREEIYQAFEAIYPVLSEFRKM
notes: 61-240, point mutant N91A; also called yTBP(N91A); source: E. coli Rosetta, purified (Ni-NTA, HiTrap SP, Superdex 75); not shown: His6, N-terminal, cleaved

How the values were obtained:
Settings in all cases: both partners purified
[1] = molecular target: T1, Kap95p; test: ITC; Kap95p with wild type or R141A yTBP^C; which protein was in the cell is not told for Kap95p; n = 3
[2] = molecular target: T2, Kap114p (wild type); test: cryo-EM structure; components purified from E. coli, mixed at an equal molar ratio, cross-linked with 0.01% glutaraldehyde, purified by SEC; Titan Krios 300 keV
[3] = molecular target: T2, Kap114p (wild type); test: ITC; MicroCal iTC200, 25 °C, 20 mM HEPES pH 7.4, 150 mM NaCl; 25 or 50 μM wild type or mutant Kap114p in the cell, 250 or 500 μM wild-type or mutant yTBP^C in the syringe; triplicate
[4] = molecular target: T3, Kap114pΔ(932-941); test: as above
[5] = molecular target: T4, Kap114p(Y370A); test: as above

Binder	Kd [1] [nM]	stoichiometry N [2]	Kd [3] [nM]	Kd [4] [nM]	Kd [5] [nM]
B1	~8100	1	~1	~158	
B2					~1500
